We go through 84 variants from the RNAGym collection of RNA variant scans (doi:10.1093/molbev/msab373).

First the molecules themselves.
B1: Azoarcus group I ribozyme (parent)
chain: GUGCCUUGCGCCGGGAAACCACGCAAGGGAUGGUGUCAAAUUCGGCGAAACCUAAGCGCCCGCCCGGGCGUAUGGCAACGCCGAGCCAAGCUUCGGCGCCUGCGCCGAUGAAGGUGUAGAGACUAGACGGCACCCACCUAAGGCAAACGCUAUGGUGAAGGCAUAGUCCAGGGAGUGGCGAAAGUCACACAAACCGG

Variants of B1 are the subject of this series. The series is described as follows: reverse-splicing fitness (ratio to wild type); higher = more active; in vitro selection; Mg2+ level not given. A digest of the protocol:
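An in vitro group I ribozyme library with randomized positions was T7-transcribed and gel-purified. In triplicate, 10 pmol RNA in EPPS pH 7.5 was reacted with 50 pmoles of a 30-nt RNA substrate for 1 h at 37 °C across several added MgCl2 levels (1–48 mM), then stopped with EDTA. Products were reverse transcribed from a substrate-complementary primer, PCR-amplified and sequenced (HiSeq 4000). Fitness is a variant's read proportion after selection over that before, normalised to wild type.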
Regarding C82U A111C C150U, the reverse-splicing fitness worked out at 0.123.
As for C82U A145G C150U U176A, the reverse-splicing fitness was 0.315.
With C82G A111G A120C A145U C150G C169G U176C, the reverse-splicing fitness came out at 0.0102.
With C82G A120U A145U C150A C169U U176G, the reverse-splicing fitness worked out at 0.00185.
As to C82U A111C A145C C150U C169G U176A, the reverse-splicing fitness was 0.0257.
Next, A120U A145U C150G C169A: 0.00425; A111C A145G C150A U176A: 0.146.
On to C82G A120G C150A C169U, for which the reverse-splicing fitness is 0.00945.
The value for C82G A111C A120U A145G C150A was 0.0106; that for C82G A120G A145C C169U U176G was 0.00392.
Next, C82U A111U A120U A145G C150A C169A U176C: 0.00382; C82A A111U A120U A145C C150G U176A: 0.00326; C82U A111G A120C C150A C169U U176C: 0.0177.
On to A111U A120G A145U C150U U176A, for which the reverse-splicing fitness turned out to be 0.0287.
Next, C82A A111C: 0.228; A111U A120G A145U C169G: 0.213; C82G A120C A145G C150A C169U U176C: 0.0165.
The value for C82A A111G A120G A145C C150U C169U U176A was 0.0203; that for A120C C150G C169G U176G was 0.0036; that for C82A A111U A120C A145G U176G was 0.00731.
With C82U A120U A145G C150G U176G, the reverse-splicing fitness stood at 0.00382.
Next, A120G A145G C150U C169A U176G: 0.0072.
Consider A111C A145G C150G C169U U176C, for which the reverse-splicing fitness came to 0.0142.
The value for A111G A145U C169A U176A was 0.0114.
For the variant A111C A145U C150A C169G U176G, the reverse-splicing fitness came to 0.00765.
The value for C82G A111U A120C A145C C150A C169U U176A was 0.0126.
As to C82A A111U A120C A145C C150G C169U, the reverse-splicing fitness was 0.00963.
For the variant C82A A120C A145G C150U C169A U176G, the reverse-splicing fitness was 0.00774.
Next, C82A A120C A145G C150U C169A U176A: 0.0169.
Regarding C82U A111C A120G A145U C169A U176G, the reverse-splicing fitness came out at 0.00418.
Next, C82A A111C A120U A145C C150A: 0.00399.
The value for C82A A111C A120U A145C C150G was 0.00708; that for C82G A111G A120G C150G C169A U176A was 0.0118.
The value for C82U A111U A120G A145C C169A U176G was 0.00391; that for C82G A111G A120C A145U C169G U176A was 0.0157; that for C82U A111G A120C C150A C169G U176G was 0.00458.
In the case of C82G A111C A145C C150U C169A, the reverse-splicing fitness stood at 0.00808.
The value for A111G A145C C150G C169A U176G was 0.00652.
Next, C82A A120C C150A C169G U176C: 0.0258.
Next, A111U A120C A145G C150G C169A U176A: 0.0117.
On to A111C A145C C150U C169A U176A, for which the reverse-splicing fitness is 0.0139.
As to C82A A111G C150A U176A, the reverse-splicing fitness is 0.0284.
Take C82U A111U A120C C150A C169A: the reverse-splicing fitness was determined as 0.00966.
The value for C82U A145C C150G C169G U176C was 0.00649.
The value for A120G A145C C150U C169U U176C was 0.0977; that for A145G C150G C169G U176A was 0.014; that for C82G A111G C169A U176A was 0.0162.
Next, C82A A111C A145G C150U U176A: 0.0494.
As to A111G A120C A145U C169A U176A, the reverse-splicing fitness amounted to 0.00811.
As to A145C C150U C169G U176G, the reverse-splicing fitness was determined as 0.00658.
In the case of C82G A111C A145U C150A C169U, the reverse-splicing fitness came to 0.0112.
As to C82G A111C C150A C169U, the reverse-splicing fitness was 0.0119.
Next, C82A A111G A145C C150A C169G: 0.00918; C82U A111U A120C A145G C150U C169U U176G: 0.00474.
In the case of C82A A111G A120C A145C C150A U176C, the reverse-splicing fitness turned out to be 0.0151.
The value for C82U A111C A120U A145G C150G U176A was 0.00648.
The value for C82G A111G A120G A145C C150A was 0.00699; that for C82U A111C A120C C150G C169G U176A was 0.00777.
Next, C82A A145C C150A C169A: 0.00702; A111U A145G C169U U176C: 0.0327; C82A A111G A120G A145G C150G C169A U176G: 0.00875.
Regarding C82A A111G A120G A145G C150G C169A U176A, the reverse-splicing fitness came out at 0.0139.
In the case of C82U A120C C150G C169U U176C, the reverse-splicing fitness is 0.0136.
As to C82G A120G A145G C150A U176C, the reverse-splicing fitness stood at 0.0209.
Next, A111C C150A C169A U176C: 0.0227; C82G A111C A120U A145G C150G C169U U176C: 0.00748; C82G A120G A145C C150A C169U U176C: 0.0106.
Next, C82A A120U A145C C150G C169U U176G: 0.00175; C82A A145C C150U: 0.151; C82G A111U A120G C150A C169G: 0.0106.
Next, C82G A111G A120U A145U C169A U176C: 0.00207; C82A A111U A120U A145G C169G U176G: 0.00182; C82G A120C A145C C150U: 0.0403.
Take C82G A111U A120G A145C C150G C169G U176A: the reverse-splicing fitness was found to be 0.00853.
In the case of A111G A120U A145C C150G C169U U176G, the reverse-splicing fitness was 0.00225.
Next, C82G A120U C150A C169A U176C: 0.0035; C82A A111C A145G C150G: 0.0238; A111G A120G A145C C150U C169U U176G: 0.00645.
For the variant C82U A111G A120U A145U C150G C169U, the reverse-splicing fitness came out at 0.00235.
Next, C82U A111G A120U A145G C150A U176A: 0.00588; A111C A120U A145C C150G U176C: 0.0215; A111G: 1.01.
For A111U A120U A145C C150A C169A, the reverse-splicing fitness was 0.00256.
Next, C82A A145U C150A U176C: 0.0555.
